Data taken from publication PMC5156300 (mBio, 2016).

Tests used:
[1] = molecular target: NP-Renilla wild type (NP of influenza virus A/WSN/33) (Influenza A virus A/WSN/33, UniProt P15682); experiment: LUMIER; settings: partners not purified
[2] = molecular target: NP of influenza virus A/PR/8/34 in infected A549 cells (Influenza A virus A/PR/8/34, UniProt P03466); experiment: flow cytometry on cells; settings: one partner purified
[3] = molecular target: NP of influenza virus A/WSN/33 in infected A549 cells (Influenza A virus A/WSN/33, UniProt P15682); experiment: flow cytometry on cells; settings: one partner purified
NP of influenza virus A/WSN/33 in infected A549 cells, sequence (P15682 whole entry): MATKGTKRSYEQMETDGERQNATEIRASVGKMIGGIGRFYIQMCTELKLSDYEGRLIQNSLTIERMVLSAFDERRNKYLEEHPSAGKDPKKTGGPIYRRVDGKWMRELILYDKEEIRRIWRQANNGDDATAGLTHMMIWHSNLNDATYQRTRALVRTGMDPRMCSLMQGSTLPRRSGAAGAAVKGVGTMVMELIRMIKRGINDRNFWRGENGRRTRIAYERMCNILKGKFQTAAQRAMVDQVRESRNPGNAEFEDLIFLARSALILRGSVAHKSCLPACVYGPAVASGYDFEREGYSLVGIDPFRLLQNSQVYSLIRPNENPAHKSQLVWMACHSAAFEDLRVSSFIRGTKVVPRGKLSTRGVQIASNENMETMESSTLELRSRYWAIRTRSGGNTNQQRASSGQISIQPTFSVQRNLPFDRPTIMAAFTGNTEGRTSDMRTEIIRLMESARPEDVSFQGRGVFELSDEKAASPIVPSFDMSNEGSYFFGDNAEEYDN

NP of influenza virus A/PR/8/34 in infected A549 cells, sequence (P03466 whole entry): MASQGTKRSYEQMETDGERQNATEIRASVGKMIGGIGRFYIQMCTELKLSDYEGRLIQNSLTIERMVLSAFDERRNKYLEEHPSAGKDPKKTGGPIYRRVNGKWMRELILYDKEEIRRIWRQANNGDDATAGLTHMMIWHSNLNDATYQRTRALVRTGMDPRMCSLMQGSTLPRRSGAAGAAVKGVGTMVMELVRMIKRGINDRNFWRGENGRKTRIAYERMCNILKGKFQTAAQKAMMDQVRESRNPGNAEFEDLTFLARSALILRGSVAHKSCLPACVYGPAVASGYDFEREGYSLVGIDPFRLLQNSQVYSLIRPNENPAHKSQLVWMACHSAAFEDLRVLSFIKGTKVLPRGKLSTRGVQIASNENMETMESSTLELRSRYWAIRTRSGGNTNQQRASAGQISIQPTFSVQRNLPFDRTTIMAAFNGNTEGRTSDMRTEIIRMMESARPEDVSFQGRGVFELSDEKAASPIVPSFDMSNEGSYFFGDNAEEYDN
NP-Renilla wild type (NP of influenza virus A/WSN/33), sequence (P15682 whole entry): as the sequence (P15682 whole entry) above

Row | Binder | binding result [1] | binding result [2] | binding result [3]
1 | αNP-VHH1-HA (VHH, also called anti-NP-VHH1-HA; HA-tagged anti-NP-VHH1; source: 293T, transfected (pCAGGS), in lysate) VHH: QVQLQESGGGLVQAGGSLRLTCALSERTSTSYAQGWFRQPPGKEREFVASLRTHDGNTHYTDSVKGRFTISRDNAENTLYLQMNSLKTEDTAVYYCAASLGYSGAYASGYDYWGQGTQVTVSS | binds | – | –
2 | αNP-VHH1-Alexa Fluor 647 (VHH) VHH: QVQLQESGGGLVQAGGSLRLTCALSERTSTSYAQGWFRQPPGKEREFVASLRTHDGNTHYTDSVKGRFTISRDNAENTLYLQMNSLKTEDTAVYYCAASLGYSGAYASGYDYWGQGTQVTVSS | – | binds | binds
